The values that follow come from paper PMC9747964 (Nature Communications, 2022).

Conditions in all cases: protein: recombinant; tags: as P1; blunt
The target in data set [1] is T1, ComEAGs-A108Y (Geobacillus stearothermophilus (ATCC …, UniProt A0A0K9HI54 60-207, A108Y)).
T1 sequence: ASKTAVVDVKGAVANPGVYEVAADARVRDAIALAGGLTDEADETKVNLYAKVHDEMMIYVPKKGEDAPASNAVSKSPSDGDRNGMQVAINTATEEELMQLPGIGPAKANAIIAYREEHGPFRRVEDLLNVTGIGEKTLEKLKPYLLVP
Nature of the data set: MW-AUC; 1.5 uM DNA, 10:1 protein:DNA; >90% DNA bound; ~4.7:1 complex, 6.3 S; MW-AUC: 10 mM Tris pH 8, 100 mM KCl, 20 C; EMSA: 10 mM Tris pH 8, 100 mM KCl, 2.5% glycerol, 0.5 mM EDTA, 1 mM MgCl2, room temperature 15 min, 8% native gel in. (In general: Mobility shift assays separate free from complexed probe on a gel.)

Data set [2] addresses T1, ComEAGs-A108Y. Nature of the data set: MW-AUC; 1.5 uM DNA, 5:1 and 10:1 protein:DNA; >90% DNA bound; ~2:1 complex, 3.3-3.5 S; MW-AUC: 10 mM Tris pH 8, 100 mM KCl, 20 C; EMSA: 10 mM Tris pH 8, 100 mM KCl, 2.5% glycerol, 0.5 mM EDTA, 1 mM MgCl2, room temperature 15 min, 8% native gel in.
Another data set has as its target T2, ComEAGs-K166A (Geobacillus stearothermophilus (ATCC …, UniProt A0A0K9HI54 60-207, K166A)).
T2 sequence: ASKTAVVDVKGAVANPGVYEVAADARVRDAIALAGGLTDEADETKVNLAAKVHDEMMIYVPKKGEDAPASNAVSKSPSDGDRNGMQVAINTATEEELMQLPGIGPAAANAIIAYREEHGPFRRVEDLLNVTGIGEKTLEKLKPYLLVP
Nature of the data set: EMSA; 0.5 uM DNA, 1 mM MgCl2; MW-AUC: 10 mM Tris pH 8, 100 mM KCl, 20 C; EMSA: 10 mM Tris pH 8, 100 mM KCl, 2.5% glycerol, 0.5 mM EDTA, 1 mM MgCl2, room temperature 15 min, 8% native gel in.

For the next data set, the target named is T3, ComEAGs-K201A (Geobacillus stearothermophilus (ATCC …, UniProt A0A0K9HI54 60-207, K201A)).
T3 sequence: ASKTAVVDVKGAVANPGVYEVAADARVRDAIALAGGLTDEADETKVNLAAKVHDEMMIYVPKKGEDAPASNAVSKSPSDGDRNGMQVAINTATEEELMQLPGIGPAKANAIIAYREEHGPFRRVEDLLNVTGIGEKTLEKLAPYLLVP
Described as above.

B1: EAGs40bp (dsDNA)
DNA 1: CGTTAGCACTGTGAATATCACTACAGCAACCTTAGAATCG
DNA 2: CGATTCTAAGGTTGCTGTAGTGATATTCACAGTGCTAACG
B1: the binding result with ComEAGs-A108Y [1] is “binds”.

B2: EAGs14bp (dsDNA)
DNA 1: GTAGGACCATCTGC
DNA 2: GCAGATGGTCCTAC
On to B2, for which, in the data set with ComEAGs-A108Y [2], the binding result was “binds”.

B3: EAGs30bp (dsDNA)
DNA 1: GCACTGTGAATATCACTACAGCAACCTTAG
DNA 2: CTAAGGTTGCTGTAGTGATATTCACAGTGC
On to B3, for which the binding result in the data set with ComEAGs-K166A is reported as “no binding”. Further, the binding signal in the data set with ComEAGs-K201A is ~2 fold decrease in apparent affinity vs wild-type.
